Reference: PMC2171039

Assays:
[1] = target: Vps32 (Aspergillus nidulans); assay: two-hybrid
[2] = target: GST::PalC (Aspergillus nidulans); assay: pull-down

Sequence of Vps32 (Aspergillus nidulans) (C8V487 whole entry): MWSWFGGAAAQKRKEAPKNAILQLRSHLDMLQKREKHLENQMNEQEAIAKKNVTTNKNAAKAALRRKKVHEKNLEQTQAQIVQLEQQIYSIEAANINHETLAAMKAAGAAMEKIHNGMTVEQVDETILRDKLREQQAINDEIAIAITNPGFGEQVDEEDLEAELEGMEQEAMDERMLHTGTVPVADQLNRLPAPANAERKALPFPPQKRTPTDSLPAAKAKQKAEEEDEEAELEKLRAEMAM

PalC Arg442Ala (natural protein)
β-galactosidase activity, % of the wild type (% of the wild type) [1]: 18

PalC Arg442His (natural protein)
β-galactosidase activity, % of the wild type (% of the wild type) [1]: 11

zz-Vps32 (natural protein)
stoichiometry N (mol of zz-Vps32 per mole of GST::PalC) [2]: 0.9
